Test: yeast display, Sf9 membrane polyspecificity reagent, FACS + sequencing; frameworks hold sequencing errors
In short: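 Sorting gates, low and high (top ~1%), were placed on anti-HA fluorescence to track expression and on streptavidin fluorescence to track reagent binding. A clone's polyreactivity label is taken from the gate it came out of. The reagent was 10% biotinylated, detergent-solubilized Sf9 membrane, applied for 1 hour at 4 °C to galactose-induced yeast display cells.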

| Sequence | polyreactivity (PSR sort gate) |
| --- | --- |
| QVHLVESGGGLVQAGGSLRLSCAASGITFYVYAMGWYRQAPGKERELVAAINYDSGSTYYADSVKGRFTISRDNAKNTVYLQMISLKPEDTAVYYCATDGVNPFYAYDYWGQGNQVTVSS | low polyreactivity |
| QVQLVESGGGLVQAGGSLRLSCAASGITFWRYAMGWYRQAPGKERELVAAIRWSGSTYADSVKGRFTISRDNAKNTVYLQMNSLKPEDTAVYYCAAYPIGGYHDMDYWGQGTQVTVSS | high polyreactivity |
| QVQLVESGGGLVQAGGSLRLSCAASGFTFSAYAMGWYRQAPGKERELVAAISTRGGSTRYADSVKGRFTISRDNAKNTVYLQMNSLKPADTAVYSCAADTRSFYRYDYWGQGTQVTVSS | high polyreactivity |
| QVQLVESGGGLVQAGGSLRLSCAASGIIFKYYAMGWYRQAPGKERELVAAITGNGGSTYYADSVKGRFTISRDNAKNTVYLQMNSLKPEDTAVYYCATRWFAVHMYWGQGTQVTVSS | high polyreactivity |
| QVQLVESVGGLVQAGGSLRLSCAASGSTLFYNAMGWYRQAPGKERELVATISGGGVSTYYADSVKGRFTISRDNAKNSVYLQMNSLNPEDTAVYYCAAAGWSEGGYDYWGQGTQVTVSS | low polyreactivity |
| QVQLVESGGGLVQAGGSLRLSCAASGFTLRGNAMGWYRQAPGKESELVAAISTGGSTYNADSVKGRFTISRDNAKITVYLQMNSLNPEDTAVYYCARRGWFHYRYYYWGQGSQVTVSS | high polyreactivity |
| QVQLVESGGGLVQAGGSLRLSCAASGFIFSIYAMGWYRQAPGKERELVAGIDNGGGTYYADSVKGRFTISRDNAKNTVYLQMNSLKPEDTAVYYCDLGSTTMDYWGQGTQVTVSS | low polyreactivity |
| QVQLVESGGGLVQAGGSLRLSCAASGLTFHRYAMGWYRQAPGKERELVAAINYSGGRTYYADSVKGRFTISRDNAKNTVYLQMNSLKPEHTAVYYCAAPRASGYYWGQGTQVTVSS | high polyreactivity |
| QVQLVESGGGLVQAGGSLRLSCAASGLTFPYYDMGWYRQAPGKERELVATITISGRTNYADSVKGRFTISRDNAKNTVYLQMNSLKPEDTAVYYCNARYRGRVYDRFGYWGQGTQVTVSS | high polyreactivity |
| QVQLVESGGGLVQAGGSLRLSCAASGFTFARNGMGWYRQAPGKEREFVAAITRSGGRTYYADSVKGRFTISRDNAKNTVYLQMNSLKPEDTAVYYCAAGYRGIGMNYWGQGTQVTVSS | high polyreactivity |
| QVQLVESGGGLVQAGGSLRLSCAASGRIFNYNAMGWYRQAPGKERELVATITYIGTGTYYADSVKGRFTISRDNAKNTVYLQMNSQKPDDTAVYYCAASYRSRVWWRFDYWGQGSQVTVSS | high polyreactivity |
| QVQLVESGGGLVQAGGSLRLSCAASGSTFQHYAMGWYRQAPGKERELVAAITNTGGSTYYADSVKGRFTISRDNAKNTVYLQMNSLKPEDTAVYYCATVGRRYGYPGYYWGQGTQVTVSS | low polyreactivity |
| QVQLVESGGGLVQAGGSLRLSCAASGSTIDYYAMGWYRQARGKERELVAAISWSGGSTYYADSVKGRFTISRDNAKNTVYLQMNSLKPEDTAVYYCAADSAFYTGSYYGWSDYDYWGQGTQVTVSS | low polyreactivity |
| QVQLVESGGGLVQAGGSLRLSCAASGSTFLRYAMGWYRQAPGKERELVAAISYRDGSTYYADSVKGRFTISRDNAKNTVYLQMNSLKPEDTAVYYCARGSWYRSAYYYWGQGTQVTVSS | high polyreactivity |
| QVQLVESGGGLVQAGGSLRLSCAASGSIFRVYAMGWYRQAPGKERELVAVISIAGRTNYADSVKGRFTISRDNAKNTVYLQMNSLKPEDTAVYYCNAEWDLNHLYDSWGQGTQVTVSS | low polyreactivity |
| QVQLVESGGGLVQAGGSLRLSCAASGSTFTQYVMGWYRQAPGKERELVAAISDSGSTYYADSVKGRFTISRDNAKNTVYLQMNSLKPEDTAVYYCATDVLAWAPYDYWGQGTQVTVSS | low polyreactivity |
| QVQLVESGGGLVQAGGSLRLSCAASGSTFSDYVMGWYRQAPGKEREFVAAISWTGGITYYADSVKGRFTISRDNAKNTVYLQMNSLKPEDTAVYYCAAKRKYYGNGYWGQGTQVTVSS | high polyreactivity |
| QVQLVESGGGLVQAGGSLRFNCSASGSIFVRYTIGWYRQAPGKERELVAAISWGGGSTYYADSVKGRFTISRDNANNTVYLQMNSLKPEDTAVYYCNKRYIQLYDYWGQGTQVTVSS | low polyreactivity |
| QVQLVESGGGLVQAGRSLRVSCAASGRIFIWNAMGWYRQAPGNERELVAAISWSGGSTYYADSVKGRFTISRDNAKNTVYLQINSLKPEDTAVYYCAARDVRPYYVKPPVRYYYWGQGTQVTVSS | high polyreactivity |
| QVQLVESGGGLVQAGGSLRLSCAASGSTFTTNAMGWYIQAPGKERELVASITWSGGGTNYADSVKGRFTISRDNAKNTVYLQMNSLKPEDTAVYYCAADYDDSHLRSDYWGQGTQVTVSS | low polyreactivity |
| QVQLVESGGGLVQAGGSLRISCAASGFTFHSYAMGWYIQAPGKERELVDAISYSGGSTYYADSVKGRFTISRDNAKNTVYLQMNSLKPEDSAVYYCAVLRYIYGYANDYWGQGTQLTVSS | low polyreactivity |
| QVQLVESGGGLVQAGGSLRLSCAASGRIFWWYSMGWYRQAPVKERELVAAISTGSRTYYADSVKGRFTISRDNAKNTVFLQMNSLKPEDTAVYYCVADGLYSVSRSSIFEYWGQGTQVTVSS | low polyreactivity |

| Sequence | polyreactivity (PSR sort gate) |
| --- | --- |
| QVQLVESGGGLVQAGGSLRLSCAASGRTFWYYAMGWYRQAPGKERELVAYADSVKGRFTISRDKAKNTVYLQMNSLKPEDTAVYYCAVGPVVWFSSSLYYTEYYYWGQGTQVTVSS | low polyreactivity |
| QVQLVDSGGGLVQAGGSLSLSCAASGITFYRYMGLYRQGPWKSRELVASITGRGGSTYYADSVKGRFTISRDNAKNTGYLEMNSLKPEDTAVYYCAAVFPTKSSTWYDYWGQGTQVTVSS | high polyreactivity |
| QVQLVESGGGLVQAGGSLRLSCAASGITFGDYAMGWNRQAPGKERELVAGINWSGDGTYYADSVKGRFTISRDNAKITVYLQMYSLKPEDTAVYYCAAETFYDYGGYDYWGQVTQVTVSS | low polyreactivity |
| QVQLVESGGGLVQAGGSLRLSCAASGFIFNRYAMGWYRQAPGKERELVAAISYRGGGTYYADSVKGRFTISRDNAKNTVYLQMNSLKPEDTAVYYCAADSSYYYPMDYWGQGTQVTVSS | high polyreactivity |
| QVQLVESGGGLVQAGGSLRLSCAASGSILTINAMGWYRQAPGKERELVAAITGNGGSTDYADSVKGRFTISRDTAKNTVYLQMNSLKPVDTAVYYCAARLYYFGRSGVKYRDGYWGQGTQVTVSS | high polyreactivity |
| QVQLVESGGGLVQAGGSLRLSCAASGFIFKSYTMGWYRQAPGKERELVADISKSGGSTYYADSVKGRFTISRDNAKNTVYLQMNSLKPEDTAVYYCNADIWLYVNNYSEYDYWGQGTQVTVSS | high polyreactivity |
| QVQLVESGGGLVQAGGSLRLSCAASGSIFKRNAMGWYRQAPGKERELVASISSGGSTHYADSVKGRFTNSRDNAKNTVYLQMNSLKPEDTAVYYCAATSIRWSVGSFRRDYWGQVTQVTVSS | low polyreactivity |
| QVQLVESGGGLVQAGGSLRLSCAASGRTFPRYTMGRYRQAPRKERELVAASATGGSTNYADSVKGRFTISRDNAKNTVYLHMNSLKPEDTAVYYCAARPYSNRYVLGVYYWGKGTQVTVSS | high polyreactivity |
| QVQLVESGGGLVQAGGSLRLSCAASGSIFPVYAMGWYRQAPGKERELVAAINSSGGSTYYADSVKWRFTISRDNAKNTVYLQMNSLKPEDTAVYYCAAEISTASYYAKTYDYWGQGTQVSVSS | low polyreactivity |
| QVQLVESGGGLVQAGGSRRLSCAASGSTFRGNARGRYRQAPGKERELVAAITWSGDDTYYADSVKGRFTISRDNAKNTVYIQMNSLKPEDTAVYYCAADVQPDTRSTPEMDYWGQGTQVTVSS | low polyreactivity |
| QVQLVESGGGLVQAGGTLRLSCPASGSNFNRYAMGSYRKAPGKERELVAAISSTGSTFYADSVKWRFTISRDNAKITVYLQMNSLTPEDTAVYYCNADATHDWLRVDTYEYWGQGTQVTVSS | low polyreactivity |
| QVQLVESGGGLVQAGGSLRLSCAASGYTFFFYAMGWYRQAPGKEREFVAAITWRGDSTYYADSVKGRFTISRDNAKNTVYLQMNSLKPEDTAVYYCAADPGFTWSRRMDYWGQGTQVTVSS | low polyreactivity |
| QVQLVESGGGLVQAGGSLRLSCAASGSTFVRNAMGWYRQAPGKERELVAAISWSGGRTYYADSVKGRFTISRDNAKNTVYLQMNSLKPEDTAVYYCAARGYAGVDYDYWGQGTQVTVSS | high polyreactivity |
| QVQLVESGGGLVQAGGSLRLSCAASGITFTYYAMGWYRPAPGKERELVAAITDRGGRTYYADSVKWRFTISRDNAKKTVYLQMNRLNPDDTAVYFCNTVPTSNSRTSVYFPYYYWGQGTQVTVSS | high polyreactivity |
| QVQLQESGGGLEQAGGDLRLSCAASGNIFRDYIMGWYRQAPGKEREFVAGIDRGANTNYADSVKGRFTISRDNAKNTVYLQMNSLKPEDTAVYYCAVHTAIVADFIYWGQGTQVTVSS | low polyreactivity |
| QVQLVESGGGLVQAGGSLRLSCAASGRTFRIYAMGWYRQAPGKERELVAAIRWSGGTTYYADSVKGRFTISRDNAKNTVYLQRNSLKPEDTAVYYCAADSTNRYDYWGQGTQVTVSS | high polyreactivity |
| QVQLVESGGGLVQAGGSLRLSCAASGRTFWFYAMGWYRQAPGKERELVASITSGGGTNYADSVKGRFTISRDNAKNTVYLQMNRLKPEDTAVYYCAAARKLDATTYYKFDYWGQVTQVTVSS | high polyreactivity |
| QVQLVESGGGLVQAGGSLRLSCAASGRIFYTYAMGWYRQAPGKERELVAGISRGGRTYYADSVKGRFTISRDNAKNSVYLQMNSLKPEDTAVYYCAARLQYGIQYRYDYWGQGTQVTVSS | high polyreactivity |
| QVQLVESGGGLVQAGGSLRLSCATSGSIFVFNAMGWYRQAPGKERELVAAIDTSDDITYYADSVKGRFTISRDNAKNTVYLQMISLKPEDTAVYYCNADTYGLVRYYIYHYEFDYWGQGTQVTVSS | high polyreactivity |
| QVHLVESGGGLVQAGGSLRLSFAASGRIFYYNAMGWYRQAHGKERELVAAIRGGCSTNYADSVKGRFTISRDNAKNTVYLQMNSLKPEDTAVYYCNTAVWGPHRYDYWGQGTQVTVSS | low polyreactivity |
| QVQLVESGGGLVQAGGSLRLSCAASGRTFYINAMGWSRQAPGKERELVAAITWSGGRTYYADSVKGRFTISRDNAKNTVYLQMNSLKPEDTAVYYCAVGYVYTRKGRVQPVKYDYWGQGTQVTVSS | high polyreactivity |

Reference: the nanobody polyreactivity screen of Harvey et al. (2022)
